B1: FGF8e: human recombinant FGF8 spliceform e (R&D Systems); SEQ ID NO:17 (protein)
chain: MGSPRSALSCLLLHLLVLCLQAQEGPGRGPALGRELASLFRAGREPQGVSQQHVREQSLVTDQLSRRLIRTYQLYSRTSGKHVQVLANKRINAMAEDGDPFAKLIVETDTFGSRVRVRGAETGLYICMNKKGKLIAKSNGKGKDCVFTEIVLENNYTALQNAKYEGWYMAFTRKGRPRKGSKTRQHQREVHFMKRLPRGHHTTEQSLRFEFLNYPPFTRSLRGSQRTWAPEPR
modifications: human FGF8e
B2: FGF17: human recombinant fibroblast growth factor 17 (PeproTech), FGF8 subfamily; SEQ ID NO:23 (protein)
chain: MGAARLLPNLTLCLQLLILCCQTQGENHPSPNFNQYVRDQGAMTDQLSRRQIREYQLYSRTSGKHVQVTGRRISATAEDGNKFAKLIVETDTFGSRVRIKGAESEKYICMNKRGKLIGKPSGKSKDCVFTEIVLENNYTAFQNARHEGWFMAFTRQGRPRQASRSRQNQREAHFIKRLYQGQLPFPNHAEKQKQFEFVGSAPTRRTKRTRRPQPLT
modifications: human FGF17
B3: FGF8a: human recombinant FGF8 spliceform a (R&D Systems); SEQ ID NO:15 (protein)
chain: MGSPRSALSCLLLHLLVLCLQAQHVREQSLVTDQLSRRLIRTYQLYSRTSGKHVQVLANKRINAMAEDGDPFAKLIVETDTFGSRVRVRGAETGLYICMNKKGKLIAKSNGKGKDCVFTEIVLENNYTALQNAKYEGWYMAFTRKGRPRKGSKTRQHQREVHFMKRLPRGHHTTEQSLRFEFLNYPPFTRSLRGSQRTWAPEPR
modifications: human FGF8a
B4: FGF8f: human recombinant FGF8 spliceform f (R&D Systems); SEQ ID NO:18 (protein)
chain: MGSPRSALSCLLLHLLVLCLQAQEGPGRGPALGRELASLFRAGREPQGVSQQVTVQSSPNFTQHVREQSLVTDQLSRRLIRTYQLYSRTSGKHVQVLANKRINAMAEDGDPFAKLIVETDTFGSRVRVRGAETGLYICMNKKGKLIAKSNGKGKDCVFTEIVLENNYTALQNAKYEGWYMAFTRKGRPRKGSKTRQHQREVHFMKRLPRGHHTTEQSLRFEFLNYPPFTRSLRGSQRTWAPEPR
modifications: human FGF8f
B5: FGF21: endocrine fibroblast growth factor 21, prior-art browning factor (Fisher et al. 2012) (protein, UniProt Q9NSA1 29-209, looked up)
Fibroblast growth factor 21: HPIPDSSPLLQFGGQVRQRYLYTDDAQQTEAHLEIREDGTVGGAADQSPESLLQLKALKPGVIQILGVKTSRFLCQRPDGALYGSLHFDPEACSFRELLLEDGYNVYQSEAHGLPLHLPGNKSPHRDPAPRGPARFLPLPGLPPALPEPPGILAPQPPDVGSSDPLSMVGPSQGRSPSYAS

System: visceral, epididymal white adipocytes
Test: Ucp1 / brown adipocyte marker mRNA (qPCR) in immortalized epididymal white adipocytes treated with FGFs
Format: cell-based, murine
Conditions: epididymal adipocytes; six days of differentiation; FGF8a, b, e, f 25.0 ng/ml, FGF17 10.0 ng/ml
Protocol: (§1) Screening paracrine FGFs for a browning potential. A, B—Screening of all paracrine FGFs in immortalized white adipocytes. Subcutaneous, inguinal and visceral, epididymal white adipocytes were grown to confluence in Dulbecco's modified Eagle's medium with 4.5 g/l glucose, supplemented with 20 nmol/l insulin, 1 nmol/l triiodothyronine, 20% fetal bovine serum, and penicillin/streptomycin. Upon reaching confluence, differentiation was induced with 500 mmol/l isobutylmethylxanthine, 250 mmol/l indomethacine, and 2 mg/ml dexamethasone for 24 hours. Subsequently, members of the paracrine FGF protein family were added to the medium for the following six days. The medium and the FGF indicated were changed every 48 hours. Untreated cells served as a negative control. At the end of the differentiation process total RNA was isolated using TRIzol reagents, RNA quality and concentration was measured by photometric analysis, and 5 μg of total RNA was reverse-transcribed to cDNA. Finally, quantitative analysis of UCP-1 mRNA expression was performed. A bar graph analysis including the SEM of 3 to 6 independent experiments is shown. […] B—Four different splicing forms of the Fgf8 gene were compared by quantifying Ucp1 mRNA expression in fully differentiated white adipocytes. UCP-1 mRNA abundance is shown in percent of the FGF8b value. Fgf8b and Fgf8f were able to increase expression in epididymal adipocytes. C—Illustration depicting the different exon usage that characterizes the FGF8 spliceforms a, b, e, and f.
(§2) Dose dependency of Ffg8b action. A, B—Subcutaneous, inguinal and visceral, epididymal white adipocytes were grown to confluence in Dulbecco's modified Eagle's medium with 4.5 g/l glucose, supplemented with 20 nmol/l insulin, 1 nmol/l triiodothyronine, 20% fetal bovine serum, and penicillin/streptomycin. Upon reaching confluence, differentiation was induced with 500 mmol/l isobutylmethylxanthine, 250 mmol/l indomethacine, and 2 mg/ml dexamethasone for 24 hours. Subsequently, FGF8b in five indicated concentrations were added to the medium for the following six days. The medium and the FGF8b were changed every 48 hours. Untreated cells served as a negative control. At the end of the differentiation process total RNA was isolated using TRIzol reagents, RNA quality and concentration was measured by photometric analysis, and 5 μg of total RNA was reverse-transcribed to cDNA. Finally, quantitative analysis of UCP-1 mRNA expression was performed. FGF8b induces Ucp1 mRNA abundance in inguinal and epididymal adipocytes. Epididymal fat cells were more dose dependently responsive to Fgf8b treatment as compared to inguinal cells. The latter were responsive to FGF8b treatment above the threshold indicated. B—The absolute increase of several genes typical for brown fat cells.
(§3) Treatment timecourse experiment. A, B—Subcutaneous, inguinal and visceral, epididymal white adipocytes were grown to confluence (prolif. denotes proliferation period) in Dulbecco's modified Eagle's medium with 4.5 g/l glucose, supplemented with 20 nmol/l insulin, 1 nmol/l triiodothyronine, 20% fetal bovine serum, and penicillin/streptomycin. Upon reaching confluence, differentiation was induced with 500 mmol/l isobutylmethylxanthine, 250 mmol/l indomethacine, and 2 mg/ml dexamethasone for 24 hours (induction). Subsequently, the cells were cultured for another six days (differentiation). At the end of the differentiation process total RNA was isolated using TRIzol reagents, RNA quality and concentration was measured by photometric analysis, and 5 μg of total RNA was reverse-transcribed to cDNA. Finally, quantitative analysis of UCP-1 mRNA expression was performed. Untreated cells served as a negative control. A bar graph analysis including the SEM of 5 independent experiments is shown. A—Epididymal fat cells were treated with FGF8b during different time windows as given by black squares indicating one day of treatment each. […]

Molecule | Induction of Ucp1 mRNA expression (browning potential), screening of paracrine FGFs and FGF8 spliceforms
B1 | did not induce Ucp1 mRNA expression
B2 | increased expression of Ucp1 mRNA expression
B3 | did not induce Ucp1 mRNA expression
B4 | effective

System: subcutaneous white adipose tissue
Test: not given
Conditions: cited from earlier work

Molecule | Appearance of brown-like adipocytes
B5 | increases the appearance of brown-like adipocytes

System: subcutaneous, inguinal white adipocytes
Test: Ucp1 / brown adipocyte marker mRNA (qPCR) in immortalized inguinal white adipocytes treated with FGFs
Format: cell-based, murine
Conditions: inguinal adipocytes; six days of differentiation; FGF8a, b, e, f 25.0 ng/ml, FGF17 10.0 ng/ml
Protocol: as §1, §2, §3

Molecule | Induction of Ucp1 mRNA expression (browning potential), screening of paracrine FGFs and FGF8 spliceforms
B1 | did not induce Ucp1 mRNA expression
B2 | strongly induce Ucp1 mRNA expression
B3 | did not induce Ucp1 mRNA expression
B4 | only effective in inducing Ucp1 expression in adipocytes of epididymal adipocytes
